Test results: article PMC5602898, “Ornithine uptake and the modulation of drug sensitivity in Trypanosoma brucei” (FASEB journal : official publication of the Federation of …, 2017)

Assays:
[1] = system: N[C@@H](Cc1c[nH]cn1)C(=O)O; assay: cells, lysate or membranes; details: L-[3H]histidine, labelled compound, 50 mM potassium phosphate pH 5.5, 0.6 M sorbitol, 100 mM glucose preincubation, 30 °C, empty-vector uptake subtracted
[2] = target: T1, TbAAT2-4 (Trypanosoma brucei, UniProt Q57Y06); assay: competition of radiolabelled histidine uptake in S. cerevisiae […]Δ8AA; assay type: cell-based; details: 200 μM histidine, 2 mM competitor, pH 5.5, 30 °C
T1 construct: gene Tb04.1D20.560; full-length ORF amplified from T. brucei 427 genomic DNA, vector pDR197, expressed in Saccharomyces cerevisiae 22Δ8AA; no tag told
T1 sequence (Q57Y06 entry or part of it): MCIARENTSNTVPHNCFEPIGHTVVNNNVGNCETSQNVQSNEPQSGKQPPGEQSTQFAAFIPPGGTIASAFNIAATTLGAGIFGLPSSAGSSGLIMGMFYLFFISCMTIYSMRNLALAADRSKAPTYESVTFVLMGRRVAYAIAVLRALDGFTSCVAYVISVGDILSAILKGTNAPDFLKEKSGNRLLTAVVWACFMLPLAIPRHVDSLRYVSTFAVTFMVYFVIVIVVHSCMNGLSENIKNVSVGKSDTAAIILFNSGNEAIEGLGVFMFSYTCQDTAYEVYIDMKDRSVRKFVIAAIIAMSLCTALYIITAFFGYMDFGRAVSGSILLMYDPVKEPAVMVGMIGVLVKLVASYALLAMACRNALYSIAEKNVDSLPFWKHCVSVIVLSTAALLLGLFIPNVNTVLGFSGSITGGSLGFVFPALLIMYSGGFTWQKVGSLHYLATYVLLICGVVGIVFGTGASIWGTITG

[3] = substrate: NCCC[C@H](N)C(=O)O; assay: cells, lysate or membranes; details: L-[3H]ornithine, labelled compound, 50 mM potassium phosphate pH 5.5, 0.6 M sorbitol, 100 mM glucose preincubation, 30 °C, empty-vector uptake subtracted

TbAAT2-4 (Trypanosoma brucei brucei TREU927)
Km [1]: 20.5 ± 8.6 µM

N=C(N)NCCC[C@H](N)C(=O)O [arginine]
% of control uptake at 2 mM [2]: TbAAT2-4-mediated histidine uptake was inhibited by several amino acids, including arginine and lysine

NCCCC[C@H](N)C(=O)O [lysine]
% of control uptake at 2 mM ([2]; also supports yeast growth on lysine): TbAAT2-4-mediated histidine uptake was inhibited by several amino acids, including arginine and lysine

B1: TbAAT10-1 (Trypanosoma brucei brucei TREU927) (protein)
chain: MSNVRGNITPAVVYASNEPNALNASDDGIKNYEAYEDIQSNNSESKFAPFSKLSKKIAAVIPPGGIFASAFNIAATTLGAGIFGLPSTANGSGLVMGILYLVIINCMTIYSMYNLALAAERSKALTYEGVTFVVLGRWAAYAIAAVRAFDGFTSCIAYVISVGDIFSSILKGTDAPEFWKGNTGNRLLTALLWLCCMLPLVIPRHVDSLRHVSTCAVTFMVYFVIVIVVHSCLNGLPENIKDVSVGKSDTAAIILFNSGNAAVEGLGVFMFSYTCQDTAYEIYMDMKDRSVRKFVISSAIAMCMCTVLYILTVFFGYMDFGRDVTGSILLMYDPVNEPAVMVGMIGVLVKLIASYALLAMACRNALYSIAGKNADVLPFWKHCASVVTLSVAALVLGLFIPKVNTVLGFAGSITGGSLGYIFPSLLLMYSGGFTWQRVGPFHYLVAYGLLISGVVGVVFGTGATIWGTIVG
Km [3]: 4.3 ± 1.5 µM
